Legend:
[1] = target: T1, VEGF (4 ng/mL, added in the in vitro angiogenesis assay) (UniProt P15692-4 27-191, limits assumed); assay: cell-based or functional assay
[2] = target: T1, VEGF (4 ng/mL, added in the in vitro …); assay: cell-based or functional assay; remark: listed apart in the source

T1 sequence (P15692 other isoform, or with tags, fused parts or gaps limits assumed): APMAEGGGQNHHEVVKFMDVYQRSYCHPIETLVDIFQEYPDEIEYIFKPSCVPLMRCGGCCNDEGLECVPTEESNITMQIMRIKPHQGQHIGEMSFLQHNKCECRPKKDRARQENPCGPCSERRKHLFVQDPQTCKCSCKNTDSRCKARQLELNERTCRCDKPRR

fold less antibody concentration than V13 for an inhibitory effect on angiogenesis [1] | IC50, average value (in vitro angiogenesis, HUVEC/NHDF co-culture) [2] | IC50, branching points (in vitro angiogenesis, HUVEC/NHDF co-culture) [2] | IC50, length of the tubes (in vitro angiogenesis, HUVEC/NHDF co-culture) [2] | Binder
≤ 12 times less | 23.4 µg/mL | 19.3 µg/mL | 27.6 µg/mL | anti-VEGF vNAR V32R (VNAR, not shown: small tags and cut ends) AASLDQTPRTATRETGESLTINCVFTDSSCGLCGTSWFRNNPGSTDWERITIGGRYVESVNKGAKSFSLQIKDLTVEDSVTYYCKAQGHRYFSKVCELRCPSYYYDGAGTVLTVN
≤ 12 times less | 30.2 µg/mL | 24.7 µg/mL | 35.8 µg/mL | anti-VEGF vNAR V19 (VNAR, not shown: small tags and cut ends) VNAR: AQRVEQTPRTATKETGESLTINCVLRDASFELKDTGWYRTKLGSTNEQSISIGGRYVETVNKGSKSFSLRISDLRVEDSGTYKCQAFYSLPLGDYNYSLLFRGEKGAGTVLTVN
– | 388 µg/mL | 340 µg/mL | 436 µg/mL | anti-VEGF vNAR V13 (other, not shown: small tags and cut ends) ASLDQTPRTATRETGESLSINCVLTDTSHILFGTKWLWNNPGSTDWESITIGGRYAESVNNQAKSFSLQIKDLTVEDSGTYYCKAQTIGRRKNLLPRPLVNGIAAMGYSSSDYDGAGTVLTVN

From patent US20170137504A1 (TERACLON IDF S L, published 2017)
